Our source for the protein stability index values is the supplement of paper PMC10567573.

B1: FCHSD1 (parent)
chain: LEAAEVILEHAHRGEQTTSQVSWE
B2: PBXIP1 (parent)
chain: LQQLRARLQGLEADCVRGPDGVCL
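Note: lentivirally expressed fusions sorted by FACS into six bins by GFP to DsRed ratio, PSI derived from sequencing read proportions per bin multiplied by bin number.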

Variants of B1 are the subject of the first data set. The experiment in a line: protein stability index of a GFP-peptide fusion (GPS, HEK-293T) (PSI 1-6); higher = more stable. Conditions: c terminus: a fixed tail appended.
As to LFAAEVILEHAHRGEQTTSQVSWE, the protein stability index was determined as 2.21. Still for that read-out and setting: next, LRAAEVILEHAHRGEQTTSQVSWE: 3.84; LAAAEVILEHAHRGEQTTSQVSWE: 3.94. Same read-out and setting: next, LTAAEVILEHAHRGEQTTSQVSWE: 3.6; LCAAEVILEHAHRGEQTTSQVSWE: 1.85.

With LKAAEVILEHAHRGEQTTSQVSWE, the protein stability index was 3.93.

Consider LNAAEVILEHAHRGEQTTSQVSWE, for which the protein stability index came to 4.42.

Regarding LDAAEVILEHAHRGEQTTSQVSWE, the protein stability index worked out at 4.31. On the same count and under the same terms, next, LPAAEVILEHAHRGEQTTSQVSWE: 4.32; LIAAEVILEHAHRGEQTTSQVSWE: 2.5; LMAAEVILEHAHRGEQTTSQVSWE: 3.79.

For LQAAEVILEHAHRGEQTTSQVSWE, the protein stability index turned out to be 4.41.

Consider LHAAEVILEHAHRGEQTTSQVSWE, for which the protein stability index worked out at 4.72. On the same count and under the same terms, next, LSAAEVILEHAHRGEQTTSQVSWE: 3.7. LEAANVILEHAHRGEQTTSQVSWE: the protein stability index turned out to be 3.63. For LEAAQVILEHAHRGEQTTSQVSWE, the protein stability index turned out to be 4.2. Still for that read-out and setting: for LEAALVILEHAHRGEQTTSQVSWE the value was 1.11; for LEAAIVILEHAHRGEQTTSQVSWE, 2.18; for LEAAKVILEHAHRGEQTTSQVSWE, 3.48. On the same count and under the same terms, for LEAARVILEHAHRGEQTTSQVSWE the value was 4.22; for LEAAFVILEHAHRGEQTTSQVSWE, 2.29. On the same count and under the same terms, for LEAAHVILEHAHRGEQTTSQVSWE the value was 3.6. Regarding LEAADVILEHAHRGEQTTSQVSWE, the protein stability index was 4.31. LEAAAVILEHAHRGEQTTSQVSWE: the protein stability index was determined as 2.84. On the same count and under the same terms, for LEAAMVILEHAHRGEQTTSQVSWE the value was 2.4; for LEAACVILEHAHRGEQTTSQVSWE, 2.82; for LEAVEVILEHAHRGEQTTSQVSWE, 3.15. On the same count and under the same terms, for LEAMEVILEHAHRGEQTTSQVSWE the value was 2.35. The same measure, in the same setting: next, LEAHEVILEHAHRGEQTTSQVSWE: 4.46. For the variant LEATEVILEHAHRGEQTTSQVSWE, the protein stability index came to 3.82. The same measure, in the same setting: for LEADEVILEHAHRGEQTTSQVSWE the value was 3.59; for LEACEVILEHAHRGEQTTSQVSWE, 4.59. Still for that read-out and setting: next, LEAYEVILEHAHRGEQTTSQVSWE: 2.48. Same read-out and setting: next, LEAREVILEHAHRGEQTTSQVSWE: 3.59. As for LEAIEVILEHAHRGEQTTSQVSWE, the protein stability index came to 2.56. Take LEAEEVILEHAHRGEQTTSQVSWE: the protein stability index came to 5.11. In the case of LEAPEVILEHAHRGEQTTSQVSWE, the protein stability index came to 5.19. Regarding LEAKEVILEHAHRGEQTTSQVSWE, the protein stability index came out at 4.24. The same measure, in the same setting: next, LEALEVILEHAHRGEQTTSQVSWE: 2.59; LEANEVILEHAHRGEQTTSQVSWE: 4.52. Take LEAFEVILEHAHRGEQTTSQVSWE: the protein stability index was 2.35. Still for that read-out and setting: next, LEAGEVILEHAHRGEQTTSQVSWE: 5.06; LENAEVILEHAHRGEQTTSQVSWE: 4.43; LEYAEVILEHAHRGEQTTSQVSWE: 3.6. The same measure, in the same setting: for LETAEVILEHAHRGEQTTSQVSWE the value was 4.49; for LELAEVILEHAHRGEQTTSQVSWE, 3.71. On the same count and under the same terms, for LEIAEVILEHAHRGEQTTSQVSWE the value was 2.88; for LEHAEVILEHAHRGEQTTSQVSWE, 3.86. Take LEKAEVILEHAHRGEQTTSQVSWE: the protein stability index is 4.57.

As for LEMAEVILEHAHRGEQTTSQVSWE, the protein stability index is 3.65.

On to LECAEVILEHAHRGEQTTSQVSWE, for which the protein stability index is 4.92. Same read-out and setting: next, LEQAEVILEHAHRGEQTTSQVSWE: 4.79. On the same count and under the same terms, next, LEVAEVILEHAHRGEQTTSQVSWE: 2.89; LESAEVILEHAHRGEQTTSQVSWE: 5.35; LERAEVILEHAHRGEQTTSQVSWE: 4.41.

With LEEAEVILEHAHRGEQTTSQVSWE, the protein stability index is 4.74.

Turning to LEDAEVILEHAHRGEQTTSQVSWE, the protein stability index was found to be 5.14.

As to LEGAEVILEHAHRGEQTTSQVSWE, the protein stability index was 4.53.

Consider SEAAEVILEHAHRGEQTTSQVSWE, for which the protein stability index was found to be 4. Still for that read-out and setting: next, WEAAEVILEHAHRGEQTTSQVSWE: 3.35; HEAAEVILEHAHRGEQTTSQVSWE: 4.88; CEAAEVILEHAHRGEQTTSQVSWE: 4.8.

DEAAEVILEHAHRGEQTTSQVSWE: the protein stability index was 4.42. The same measure, in the same setting: for YEAAEVILEHAHRGEQTTSQVSWE the value was 5. As for EEAAEVILEHAHRGEQTTSQVSWE, the protein stability index came out at 4.55. On the same count and under the same terms, for PEAAEVILEHAHRGEQTTSQVSWE the value was 5.11; for IEAAEVILEHAHRGEQTTSQVSWE, 4.12. On the same count and under the same terms, for REAAEVILEHAHRGEQTTSQVSWE the value was 4.52. Still for that read-out and setting: for MEAAEVILEHAHRGEQTTSQVSWE the value was 4.58; for QEAAEVILEHAHRGEQTTSQVSWE, 4.92; for NEAAEVILEHAHRGEQTTSQVSWE, 4.61. In the case of KEAAEVILEHAHRGEQTTSQVSWE, the protein stability index turned out to be 4.67. Same read-out and setting: next, FEAAEVILEHAHRGEQTTSQVSWE: 3.33; VEAAEVILEHAHRGEQTTSQVSWE: 4.7; TEAAEVILEHAHRGEQTTSQVSWE: 5.34.

In the next data set the parent is B2. Described as above. Conditions: c terminus: a fixed tail appended.
LQQLRARLQGLEADCVRGPDGVCS: the protein stability index turned out to be 2.89. Same read-out and setting: next, LQQLRARLQGLEADCVRGPDGVCP: 2.79.

For the variant LQQLRARLQGLEADCVRGPDGVCI, the protein stability index was 1.94. Still for that read-out and setting: next, LQQLRARLQGLEADCVRGPDGVCW: 2.15; LQQLRARLQGLEADCVRGPDGVCH: 2.97; LQQLRARLQGLEADCVRGPDGVCY: 2.34. Turning to LQQLRARLQGLEADCVRGPDGVCV, the protein stability index is 1.79. The same measure, in the same setting: next, LQQLRARLQGLEADCVRGPDGVCR: 2.65; LQQLRARLQGLEADCVRGPDGVCT: 1.74; LQQLRARLQGLEADCVRGPDGVCQ: 3.1. The same measure, in the same setting: next, LQQLRARLQGLEADCVRGPDGVCD: 3.08; LQQLRARLQGLEADCVRGPDGVCN: 3.04; LQQLRARLQGLEADCVRGPDGVQL: 2.39. Same read-out and setting: next, LQQLRARLQGLEADCVRGPDGVYL: 2.29; LQQLRARLQGLEADCVRGPDGVWL: 3.01; LQQLRARLQGLEADCVRGPDGVVL: 1.74.

LQQLRARLQGLEADCVRGPDGVNL: the protein stability index was found to be 1.65. Still for that read-out and setting: for LQQLRARLQGLEADCVRGPDGVPL the value was 2.52; for LQQLRARLQGLEADCVRGPDGVSL, 1.96.
